± gives the standard deviation.

A short description of this data set: protein stability index of a GFP-peptide fusion (GPS, HEK-293T) (PSI 1-6); higher = more stable.
The mark [1] stands for this setting: treatment: DMSO, c terminus: a fixed tail appended.
[2] abbreviates: treatment: MLN4924 1 uM, 8 h, c terminus: a fixed tail appended.
The mark [3] stands for this setting: treatment: DMSO, c terminus: native.
[4] abbreviates: treatment: MLN4924 1 uM, 8 h, c terminus: native.
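Further: 24-mer peptide tiles fused after GFP, lentivirally expressed, FACS-sorted into six equal bins by GFP/DsRed ratio, decoded by Illumina sequencing, PSI is the read-weighted mean bin number.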

For the sequence NNWPPLPSFCPVQPCFFQDISMEI [SCAMP3], the protein stability index runs as follows: under setting [1], 2.4 ± 0.53; under setting [2], 2.55 ± 0.5.
For NPQRQGLLKTPWRAASAMQFFTKG [GCH1], in that order: 2.89 ± 0.29 and 2.76 ± 0.21.
Regarding NPYHQPYISRKYFATRPGAIETAM [TPRG1], the protein stability index worked out at 2.22 ± 0.18 under setting [1] and 2.52 ± 0.25 under setting [2].
As for NVGRVHRVAKKLQSGLVWTNCWLI [ALDH8A1], the protein stability index reads like this: under setting [1], 3.04 ± 0.41; under setting [2], 2.61 ± 0.49.
With NVVPIHVPPTTENKPKVQCCQNI [RAB11A], the protein stability index reads like this: under setting [3], 4.13 ± 0.19; under setting [4], 4.12 ± 0.11.
For NWVIPAISAVAVALMYRLYMAED [CYB5A], in that order: 3.92 ± 0.12 and 4.02 ± 0.19.
For the sequence NYRSFEPILRLLPQGISPVSQHWA [ZER1], the protein stability index is, setting by setting: under setting [1], 2 ± 0.27; under setting [2], 2.09 ± 0.26.
For PAADGARAPRSPGQVTPRGLRLRL [C6orf223], in that order: 3.96 ± 0.12 and 3.97 ± 0.19.
PAASNSSDLFDLMGSSQATMTSSQ [CLINT1] returned a protein stability index under setting [1] of 5.06 ± 0.16 and a protein stability index under setting [2] of 5.02 ± 0.17.
For PAEEAGPEGGLEEPDALDDSLTSL [FOXJ1], the protein stability index came to 5.6 ± 0.23 under setting [1] and 5.56 ± 0.34 under setting [2].
As for PALETQPQGDEEDIASRYPTLWTE [SMOC2], the protein stability index came out at 4.78 ± 0.34 under setting [1] and 4.85 ± 0.54 under setting [2].
For PAQSHTLQANDVFHKQQWFNCIRA [NET1], in that order: 2.71 ± 0.38 and 2.71 ± 0.3.
For PARDGVEASAEGPRAVFVLLEERR [TFE3], in that order: 4.26 ± 0.27 and 4.23 ± 0.073.
Take PAVPEEILKRLLKEQHLWDVDLLD [DLC1]: the protein stability index by setting is: under setting [1], 2.97 ± 0.55; under setting [2], 3.12 ± 0.34.
The matching figures for PCATVSVFPGARLLTIGDANGEIQ [CARM1]: 3.31 ± 0.38 and 3.28 ± 0.16.
For PDFYKQSSPNLQVSSDGTLKYMEV [PCDHGC5], in that order: 3.4 ± 0.16 and 3.39 ± 0.45.
PDGKEMAEEYDEKTSELLVRKWRV [DPCD]: the protein stability index under setting [1] was found to be 4.31 ± 0.23 and the protein stability index under setting [2] worked out at 4.41 ± 0.11.
For PDHQVPYGHDYPRAAYQQVIQPAL [TRAF3IP2], in that order: 3.48 ± 0.29 and 3.56 ± 0.24.
For PGAYYPYERTLGQYQYERYGAVEL [IRX6], in that order: 2.3 ± 0.33 and 2.41 ± 0.21.
Regarding PGITRVYSIGRSVEGRHLYVLEFS [CPN1], the protein stability index by setting is: under setting [1], 3.12 ± 0.91; under setting [2], 2.81 ± 0.63.
Regarding PGLSQGPGKETLESALIALDSEKP [EHMT1], the protein stability index by setting is: under setting [1], 5.33 ± 0.28; under setting [2], 5.31 ± 0.18.
For PGPPGSSRPVKGQVVTVHLQTSLE [FKBP8], in that order: 3.5 ± 0.48 and 3.53 ± 0.22.
The matching figures for PGSTRPHRSACSSAAVRGHPRALP [HAGHL]: 3.19 ± 0.23 and 3.15 ± 0.24.
Consider PIDQGPAIGRVRVLEEQLVKAKEQ [FUT8], for which the protein stability index was determined as 5 ± 0.16 under setting [1] and 5.09 ± 0.27 under setting [2].
For PIMSGQGLAGFFASVAMICAIASG [SLC29A1], in that order: 3.12 ± 0.21 and 3.13 ± 0.48.
As to PIPHVFSAGTGSAILPHFHHAFR [PLAGL1], the protein stability index under setting [3] worked out at 3.04 ± 0.22 and the protein stability index under setting [4] came out at 3.17 ± 0.16.
Turning to PKSPATPKQLRLINQPLPDLKNVK [MAP2], the protein stability index reads like this: under setting [1], 4.51 ± 0.27; under setting [2], 4.793 ± 0.034.
For PNDEHWKALSRKSTSFRVYIMAFD [FBXO33], in that order: 2.11 ± 0.52 and 2.27 ± 0.45.
As for PNDEVHPLLGVKGDGKSKKKQAGR [RBBP5], the protein stability index by setting is: under setting [1], 5.35 ± 0.27; under setting [2], 5.2 ± 0.35.
Take PPETVQNWIELLSGETWNPLKLHY [GOLPH3]: the protein stability index is 2.17 ± 0.24 under setting [1] and 2.12 ± 0.21 under setting [2].
PPGPDRLPSNLVQYYDDEKKTWKI [KLHL14] yielded a protein stability index under setting [1] of 4.87 ± 0.082 and a protein stability index under setting [2] of 4.7 ± 0.33.
In turn, PPKQAQKEQRKQMKGRGQLEKPPA [TBC1D10A] came in with a protein stability index under setting [1] of 5.26 ± 0.18 and a protein stability index under setting [2] of 5.29 ± 0.21.
For the sequence PPPELMDVSLVGGPADCSPPHPAP [DYRK1B], the protein stability index turned out to be 5.08 ± 0.22 under setting [1] and 5.1 ± 0.11 under setting [2].
Consider PPPPIDNGDITSFLLSVYAPGSSV [CFHR2], for which the protein stability index runs as follows: under setting [1], 2.66 ± 0.33; under setting [2], 2.65 ± 0.37.
The matching figures for PPPPPGPPPPPGLPSDGDHQVPTT [WASL]: 5.48 ± 0.26 and 5.63 ± 0.21.
As to PPPPPKEGHQEGLVELPASFRELL [SCNN1D], the protein stability index was found to be 4.29 ± 0.12 under setting [1] and 4.29 ± 0.1 under setting [2].
The matching figures for PPRGPLAKHRLVPPAQGRVSRRLS [TRIM9]: 4.21 ± 0.27 and 4.16 ± 0.49.
For PPRPPPRGTPPRRHSFRKHLYLLR [N4BP2L1], in that order: 3.32 ± 0.35 and 3.56 ± 0.23.
Consider PQALPEPMQESKAEGNNQAPGEEE [CHGA], for which the protein stability index by setting is: under setting [1], 5.54 ± 0.24; under setting [2], 5.5 ± 0.35.
For PQERTLTLVDTGIGMTKADLINNL [HSP90AB1], in that order: 3.49 ± 0.33 and 3.67 ± 0.26.
As for PQHQAGSDSLLTGMAFFKMREMFF [CNOT7], the protein stability index runs as follows: under setting [1], 2.13 ± 0.16; under setting [2], 2.15 ± 0.099.
For PQLGLDGPGEPDVRDGFSATFEKI [PSD2], in that order: 4.73 ± 0.18 and 4.67 ± 0.13.
The matching figures for PQPDPVFLEALSSRYLGDSGLDDF [SERTAD3]: 4.19 ± 0.47 and 4.08 ± 0.14.
The matching figures for PRGYFHTFAGDTCQVALNFANEEE [WASL]: 4.43 ± 0.27 and 4.34 ± 0.12.
For the sequence PRPNRLFLRQLRASHLGNELEGTE [C2CD2L], the protein stability index is, setting by setting: under setting [1], 3.92 ± 0.15; under setting [2], 4.05 ± 0.26.
Take PRRRRPGCYAYRQNPEAIAAAAMY [MYORG]: the protein stability index under setting [1] turned out to be 2.78 ± 0.19 and the protein stability index under setting [2] amounted to 2.9 ± 0.34.
The matching figures for PRSPECRMIPGQPPASARRLSVPR [IRX6]: 4.47 ± 0.24 and 4.52 ± 0.12.
Regarding PRTRGSWSQPQPLKAPCLNGDTT [RASAL3], the protein stability index reads like this: under setting [3], 3.62 ± 0.36; under setting [4], 3.5 ± 0.36.
As to PRTSQSEETRVWHRRDGKWQNVHF [CAMK2B], the protein stability index was 3.29 ± 0.3 under setting [1] and 3.39 ± 0.22 under setting [2].
For PSHSDNLLHGLNLLWRKQLFCDVT [KLHL14], the protein stability index reads like this: under setting [1], 1.96 ± 0.33; under setting [2], 2.16 ± 0.3.
The matching figures for PSMNPDGYEVAAAQGPNKPGYLVG [CPN1]: 4.33 ± 0.19 and 4.25 ± 0.24.
For PSNGRIDIKQLIAKKIKLTAEAEE [SOAT1], in that order: 3.19 ± 0.59 and 3.33 ± 0.31.
For PTMPALFSDHTFRHYAYLRDSLSH [INTS4], in that order: 2.3 ± 0.14 and 2.31 ± 0.12.
For the sequence PVGEPVTNVRLQPAATWNLEEKRL [FCHO1], the protein stability index was 4.52 ± 0.27 under setting [1] and 4.63 ± 0.24 under setting [2].
Turning to PVGLVMEYMETGSLEKLLASEPLP [RIPK4], the protein stability index reads like this: under setting [1], 3.46 ± 0.48; under setting [2], 3.13 ± 0.22.
Consider PVLKRSSESMENINSGYETRRKKG [KMT2E], for which the protein stability index is, setting by setting: under setting [1], 4.87 ± 0.28; under setting [2], 4.72 ± 0.29.
PVTPQVGEGRKSRKFSRLSCLRRR [SMG5]: the protein stability index is 4.36 ± 0.068 under setting [1] and 4.34 ± 0.12 under setting [2].
As to PVTSIGIDNLGLKLEENLQETHSA [SLC35F2], the protein stability index stood at 5.06 ± 0.19 under setting [1] and 5 ± 0.11 under setting [2].
The matching figures for PVVSAVWGHCEVTMRYINGLDPEP [SPSB4]: 2.28 ± 0.23 and 2.54 ± 0.53.
For the sequence PVVSMDLDPQPITDEEEGLIWVVG [PTPRD], the protein stability index runs as follows: under setting [1], 3.96 ± 0.29; under setting [2], 4.29 ± 0.48.
For PYPVLFHNIFLLGGSSTSERCLLN [NLN], in that order: 3.23 ± 1.5 and 2.59 ± 0.8.
Turning to QAELSYKKVSEGPPLRLWRSVIEV [DLC1], the protein stability index reads like this: under setting [1], 2.19 ± 0.31; under setting [2], 2.49 ± 0.43.
With QAKILQCYRENTHQTLKCSALATQ [CHCHD3], the protein stability index is 3.21 ± 0.31 under setting [1] and 3.33 ± 0.26 under setting [2].
For QALAGASSGRELGRPKELQPKKLH [ZNF263], in that order: 5.01 ± 0.46 and 4.82 ± 0.14.
The sequence QALEKIFLQKVAQMPQEEVELLPP [BRD3] had a protein stability index under setting [1] of 2.63 ± 0.26 and a protein stability index under setting [2] of 2.83 ± 0.4.
For QAQQGRSSLVWLFSQLYLYSFISL [MCOLN1], in that order: 2.86 ± 0.46 and 3.09 ± 0.25.
QDGLPPTWRDFRTLEAFHDTCRQ [MED27]: the protein stability index runs as follows: under setting [3], 4.16 ± 0.27; under setting [4], 4.21 ± 0.4.
Regarding QEAMKRLRGAKAFRLPGLSRRERE [FCHO1], the protein stability index by setting is: under setting [1], 3.91 ± 0.25; under setting [2], 4.13 ± 0.2.
For QEELQIQAAVAAGDVHTVRKMLEQ [ASB7], the protein stability index came to 5 ± 0.39 under setting [1] and 4.73 ± 0.21 under setting [2].
For QEHSNSVGGQDTGATWRTSGLLEE [C18orf25], the protein stability index is 5.28 ± 0.27 under setting [1] and 4.96 ± 0.18 under setting [2].
The matching figures for QFVEGVRMEEIVEGCTGALHILAR [CTNNB1]: 3.12 ± 0.52 and 3.05 ± 0.64.
With QGPTPRYFTWDEVAQRSGCEERWL [FADS1], the protein stability index by setting is: under setting [1], 3.43 ± 0.27; under setting [2], 3.39 ± 0.24.

For the origin of these results see the supplement of paper PMC10567573.
